Assay results published in the Immune Epitope Database (IEDB).

Key:
[1] = biological target: HLA-B*15:03; test: IEDB peptide-MHC binding, purified MHC/competitive/radioactivity; filed as Kd, often an IC50 or EC50 that approximates it; ≥ and ≤ were set here for values at or beyond the usual limits of such assays
[2] = biological target: HLA-A*32:01; test: as above
[3] = biological target: HLA-A*30:01; test: as above
[4] = biological target: HLA-B*08:01; test: as above
[5] = biological target: HLA-B*15:01; test: as above
[6] = biological target: HLA-B*83:01; test: IEDB peptide-MHC binding, purified MHC/competitive/fluorescence; filed as Kd, often an IC50 or EC50 that approximates it; ≥ and ≤ were set here for values at or beyond the usual limits of such assays
[7] = biological target: HLA-B*15:42; test: as above
[8] = biological target: HLA-B*45:06; test: as above
[9] = biological target: HLA-A*03:01; test: IEDB peptide-MHC binding, purified MHC/direct/fluorescence; filed as Kd, often an IC50 or EC50 that approximates it; ≥ and ≤ were set here for values at or beyond the usual limits of such assays
[10] = biological target: HLA-A*11:01; test: as above
[11] = biological target: HLA-B*51:01; test: as above
[12] = biological target: HLA-B*07:02; test: as above
[13] = biological target: HLA-B*15:01; test: IEDB peptide-MHC binding, purified MHC/competitive/fluorescence; filed as Kd, often an IC50 or EC50 that approximates it; ≥ and ≤ were set here for values at or beyond the usual limits of such assays
[14] = biological target: HLA-B*08:01; test: IEDB peptide-MHC binding, purified MHC/direct/fluorescence; filed as Kd, often an IC50 or EC50 that approximates it; ≥ and ≤ were set here for values at or beyond the usual limits of such assays
[15] = biological target: HLA-B*08:02; test: as above; conditions: source organism: Vibrio vulnificus CMCP6
[16] = biological target: HLA-B*57:01; test: IEDB peptide-MHC binding, purified MHC/competitive/fluorescence; filed as Kd, often an IC50 or EC50 that approximates it; ≥ and ≤ were set here for values at or beyond the usual limits of such assays; conditions: source organism: Homo sapiens
[17] = biological target: HLA-B*18:01; test: as above
[18] = biological target: HLA-B*15:17; test: as above; conditions: source organism: Homo sapiens
[19] = biological target: HLA-B*51:01; test: as above; conditions: source organism: Homo sapiens
[20] = biological target: HLA-B*46:01; test: as above; conditions: source organism: Homo sapiens
[21] = biological target: HLA-A*26:01; test: as above
[22] = biological target: HLA-A*69:01; test: as above; conditions: source organism: Homo sapiens
[23] = biological target: HLA-B*39:01; test: as above
[24] = biological target: HLA-B*27:03; test: as above
[25] = biological target: HLA-B*57:01; test: IEDB peptide-MHC binding, purified MHC/direct/fluorescence; filed as Kd, often an IC50 or EC50 that approximates it; ≥ and ≤ were set here for values at or beyond the usual limits of such assays; conditions: source organism: Zaire ebolavirus
[26] = biological target: HLA-B*27:05; test: as above; conditions: source organism: Zaire ebolavirus
[27] = biological target: HLA-A*31:01; test: as above; conditions: source organism: Zaire ebolavirus
[28] = biological target: HLA-A*68:02; test: as above; conditions: source organism: Zaire ebolavirus
[29] = biological target: HLA-A*24:03; test: as above; conditions: source organism: Zaire ebolavirus
[30] = biological target: HLA-B*48:01; test: as above; conditions: source organism: Zaire ebolavirus
[31] = biological target: HLA-B*15:01; test: as above; conditions: source organism: Zaire ebolavirus
[32] = biological target: HLA-B*46:01; test: as above; conditions: source organism: Zaire ebolavirus
[33] = biological target: HLA-B*58:01; test: as above; conditions: source organism: Zaire ebolavirus
[34] = biological target: HLA-A*02:12; test: as above; conditions: source organism: Zaire ebolavirus
[35] = biological target: HLA-A*69:01; test: as above; conditions: source organism: Zaire ebolavirus
[36] = biological target: HLA-A*29:02; test: as above; conditions: source organism: Zaire ebolavirus
[37] = biological target: HLA-A*01:01; test: as above; conditions: source organism: Zaire ebolavirus
[38] = biological target: HLA-A*02:11; test: as above; conditions: source organism: Zaire ebolavirus
[39] = biological target: HLA-A*24:02; test: IEDB peptide-MHC binding, purified MHC/competitive/fluorescence; ≥ and ≤ were set here for values at or beyond the usual limits of such assays; conditions: source organism: Sudan ebolavirus
[40] = biological target: HLA-A*02:01; test: IEDB peptide-MHC binding, purified MHC/competitive/fluorescence; filed as Kd, often an IC50 or EC50 that approximates it; ≥ and ≤ were set here for values at or beyond the usual limits of such assays; conditions: source organism: Zaire ebolavirus
[41] = source organism: Vaccinia virus WR
[42] = source organism: Mycobacterium tuberculosis variant bovis BCG str. Pasteur 1173P2
[43] = source organism: Vaccinia virus Copenhagen
[44] = source organism: Camelpox virus CMS
[45] = source organism: Vibrio vulnificus
[46] = source organism: Vaccinia virus
[47] = source organism: Brucella abortus
[48] = source organism: Zaire ebolavirus

AKSKFPRSM gave a Kd [1, 41] of 0.000261 µM.
Sequence ALTKNYLSF has a Kd [1, 41] of 0.0401 µM.
In the case of FKFNSQVSI, the Kd [1, 41] is reported as 0.00124 µM.
For HLYNILNNI, the Kd [2, 41] was 0.0726 µM, the Kd [3, 41] was 1.45 µM and the Kd [4, 41] was 1.97 µM. The Kd [5, 41] was 1.48 µM and the Kd [1, 41] was 1.4 µM.
For HPVTATISF, the Kd [6, 42] was 0.616 µM, the Kd [7, 42] was ≥ 5 µM and the Kd [8, 42] was ≥ 5 µM.
KSVEDVSAF gave a Kd [1, 41] of 0.0136 µM.
KTLKYSNKI gave a Kd [2, 41] of 0.0019 µM, a Kd [3, 41] of 0.0375 µM and a Kd [4, 41] of 1.18 µM. The Kd [5, 41] was 0.123 µM and the Kd [1, 41] was 0.448 µM.
LIPFLILFI was tested, and the Kd [2, 43] was 12.1 µM, the Kd [3, 43] was 0.097 µM and the Kd [4, 43] was 0.0497 µM. It also gave a Kd [5, 43] of 0.471 µM and a Kd [1, 43] of 0.195 µM.
For LMYPTTLLK, the Kd [9, 44] was 0.0045 µM, the Kd [10, 44] was 0.0022 µM and the Kd [6, 41] was ≥ 5 µM. For the same sequence, the Kd [7, 41] was ≥ 5 µM and the Kd [8, 41] was ≥ 5 µM.
LPDLPTTTI was tested, and the Kd ([11]; source organism: Staphylococcus aureus) was 0.922 µM.
NAFGWENAY was tested, and the Kd [11, 45] was ≥ 20 µM, the Kd [12, 45] was 0.35 µM and the Kd ([13]; source organism: Vibrio vulnificus YJ016) was 1.32 µM.
With NKFFEVIFF the Kd [1, 41] was 0.0188 µM.
QTIVFIWFI gave a Kd [2, 46] of 1.76 µM, a Kd [3, 46] of 6.24 µM and a Kd [4, 46] of 16.9 µM. It also gave a Kd [5, 46] of 0.253 µM and a Kd [1, 46] of 1.03 µM.
With RGRKRFHTL the Kd ([14]; source organism: Vibrio vulnificus CMCP6) was 0.009 µM and the Kd [15] was 6.76 µM.
In the case of RPNPDFNTF, the Kd [11, 47] is reported as ≥ 20 µM, the Kd [12, 47] is reported as 0.0126 µM and the Kd ([13]; source organism: Brucella melitensis bv. 1 str. 16M) is reported as 3 µM.
In the case of RQSSCKMAL, the Kd [1, 41] is reported as 0.0188 µM.
With SLGDPLHQA the Kd [16] was ≥ 20 µM, the Kd ([17]; source organism: Homo sapiens) was ≥ 20 µM and the Kd [18] was ≥ 20 µM. The Kd [19] was ≥ 20 µM, the Kd ([13]; source organism: Homo sapiens) was ≥ 20 µM and the Kd [20] was ≥ 20 µM. For the same sequence, the Kd ([21]; source organism: Homo sapiens) was ≥ 20 µM, the Kd [22] was ≥ 20 µM and the Kd ([23]; source organism: Homo sapiens) was ≥ 20 µM. The Kd ([24]; source organism: Homo sapiens) was ≥ 20 µM.
Sequence SPGIRPRFL has a Kd [2, 43] of 2.81 µM, a Kd [3, 43] of 8.43 µM and a Kd [4, 43] of 0.0558 µM. It also gave a Kd [5, 43] of 1.92 µM and a Kd [1, 43] of 10.3 µM.
SQVSSTELF showed a Kd [1, 41] of 0.00183 µM.
VSFSPSLTF showed a Kd [2, 43] of 0.736 µM, a Kd [5, 43] of 0.00126 µM and a Kd [1, 43] of 0.00122 µM.
For YDRLASTVI, the Kd [25] was ≥ 20 µM, the Kd [9, 48] was ≥ 20 µM and the Kd [14, 48] was ≥ 20 µM. For the same sequence, the Kd [10, 48] was ≥ 20 µM, the Kd [12, 48] was ≥ 20 µM and the Kd [26] was ≥ 20 µM. The Kd [27] was ≥ 20 µM, the Kd [28] was ≥ 20 µM and the Kd [29] was ≥ 20 µM. The Kd [30] was ≥ 20 µM, the Kd [31] was ≥ 20 µM and the Kd [32] was ≥ 20 µM. For the same sequence, the Kd [33] was ≥ 20 µM, the Kd [34] was ≥ 20 µM and the Kd [35] was ≥ 20 µM. The Kd [36] was ≥ 20 µM, the Kd [37] was ≥ 20 µM and the Kd [38] was ≥ 20 µM. The IC50 [39] was 2.49 µM, the Kd [40] was ≥ 20 µM and the Kd [17, 48] was ≥ 20 µM. The Kd [21, 48] was ≥ 20 µM, the Kd [23, 48] was ≥ 20 µM and the Kd [24, 48] was ≥ 20 µM.
